Patent US20100159482A1 (LIFE TECHNOLOGIES, published 2010)
The star is where a group is joined. MeOSuc = COC(=O)CCC(=O)*; CH2Cl = ClC*

Key:
[1] = target: T1, proteinase K (UniProt P06873 106-384); assay: computed, not measured: CDOCKER docking on PDB 3PRK, MM-PBSA rescoring, average of three poses
Method: Based on the studies cited in the previous examples, a study was carried out to examine the change in total binding free energy of peptide inhibitor to proteinase K to form the peptide-inhibitor complex. The molecular docking of inhibitors MeOSuc-AAPV-CH₂Cl (SEQ ID NO:2), MeOSuc-AAPL-CH₂Cl (SEQ ID NO:10), MeOSuc-AAAPV-CH₂Cl (SEQ ID NO:8), MeOSuc-AAAPL-CH₂Cl (SEQ ID NO:7), MeOSuc-AAAPF-CH₂Cl (SEQ ID NO:9), MeOSuc-AAPA-CH₂Cl (SEQ ID NO:1), and MeOSuc-AAPF-CH₂Cl (SEQ ID NO:5) into the binding site of Proteinase K was performed using CDOCKER of Discovery Studio V2.01 (1. (Accelrys Software Inc., Discovery Studio Modeling Environment, Release 2.01, San Diego: Accelrys Software Inc., 2008., trial version) which uses a CHARMm based Molecular Dynamics docking algorithm. The crystal structure of the protein complex covalently formed between proteinase K and MeOSuc-AAPA-CH₂Cl (SEQ ID NO:1) was used as a starting structure for molecular simulation (PDB CODE: 3PRK; Wolf W M et al. J. Biol. Chem. 1991, 266, 17695). Water molecules were removed from the protein complex, protonated at pH 8.0 and the structure was energy minimized using CHARMm force field with a convergence threshold of 0.05 kcal/mol A. Then, the inhibitor part was removed from the protein complex and was used to build the structures of MeOSuc-AAPV-CH₂Cl (SEQ ID NO:2) (see FIG. 8A), MeOSuc-AAPL-CH₂Cl (SEQ ID NO:10) (see FIG. 9A), MeOSuc-AAAPV-CH₂Cl (SEQ ID NO:8) (see FIG. 8B), MeOSuc-AAAPL-CH₂Cl (SEQ ID NO:7) (see FIG. 9B), MeOSuc-AAAPF-CH₂Cl (SEQ ID NO:9) (see FIG. 11B), MeOSuc-AAPA-CH₂Cl (SEQ ID NO:1) (see FIG. 10), and MeOSuc-AAPF-CH₂Cl (SEQ ID NO:5) (see FIG. 11A). A site sphere with a radius of 13A was created at center of the active site of inhibitor-free proteinase K.
The CDOCKER algorithm can generate several different orientations for each inhibitor in the active site of proteinase K within the site sphere and perform MD-based simulated annealing followed by final minimization. […] The MD simulation for each orientation consisted of 1000 steps at 2 fs per step and at 1000 K. No inherent restrictions were placed on the conformers of inhibitors.

[2] = target: T1, proteinase K; assay: cell-based or functional assay

T1 sequence (P06873 106-384 limits assumed): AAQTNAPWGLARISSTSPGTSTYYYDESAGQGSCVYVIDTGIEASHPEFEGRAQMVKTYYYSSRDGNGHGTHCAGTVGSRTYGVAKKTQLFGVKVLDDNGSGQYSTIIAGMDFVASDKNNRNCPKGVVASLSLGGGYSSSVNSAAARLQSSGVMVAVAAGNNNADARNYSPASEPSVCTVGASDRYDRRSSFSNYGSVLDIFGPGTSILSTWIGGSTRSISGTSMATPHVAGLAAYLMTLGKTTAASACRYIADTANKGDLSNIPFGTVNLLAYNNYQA

Molecule | ΔΔGBind (total binding free energy, calculated) [1] [kcal/mol] | effective inhibitory concentration, beta-actin RT-qPCR from HeLa cell lysates [2] [mM] | lowest inhibitory concentration in the stopped mixture, indirect linked RT-qPCR assay [2] [mM]
methoxysuccinyl-AlaAlaProAla-chloromethyl ketone (peptide) | -14.6 |  | 
AAAPV (HELM PEPTIDE1{[COC(=O)CCC(=O)[*:2]].A.A.A.P.V.[ClC[*:1]]}$$$$V2.0; SMILES COC(=O)CCC(=O)N[C@@H](C)C(=O)N[C@@H](C)C(=O)N[C@@H](C)C(=O)N1CCC[C@H]1C(=O)N[C@H](C(=O)CCl)C(C)C) [MeOSuc-AlaAlaAlaProVal-CH2Cl] | 1.32 | 0.5 | 
AAAPF (HELM PEPTIDE1{[COC(=O)CCC(=O)[*:2]].A.A.A.P.F.[ClC[*:1]]}$$$$V2.0; SMILES COC(=O)CCC(=O)N[C@@H](C)C(=O)N[C@@H](C)C(=O)N[C@@H](C)C(=O)N1CCC[C@H]1C(=O)N[C@@H](Cc1ccccc1)C(=O)CCl) [MeOSuc-AlaAlaAlaProPhe-CH2Cl] | 9.95 | 0.1 | 
MeOSuc-AAPV-CH2Cl (also called MeOSuc-AAPV-CH2Cl; MSVCK) [methoxysuccinyl-AlaAlaProVal-chloromethyl ketone] | -6.63 | 0.5 | ~0.25
AAPL (HELM PEPTIDE1{[COC(=O)CCC(=O)[*:2]].A.A.P.L.[ClC[*:1]]}$$$$V2.0; SMILES COC(=O)CCC(=O)N[C@@H](C)C(=O)N[C@@H](C)C(=O)N1CCC[C@H]1C(=O)N[C@@H](CC(C)C)C(=O)CCl, also called MeOSuc-AAPL-CH2Cl; methoxysuccinyl-AAPL-chloromethyl ketone) [MeOSuc-AlaAlaProLeu-CH2Cl] | -12.7 | ~0.1 | 
AAPF (HELM PEPTIDE1{[COC(=O)CCC(=O)[*:2]].A.A.P.F.[ClC[*:1]]}$$$$V2.0; SMILES COC(=O)CCC(=O)N[C@@H](C)C(=O)N[C@@H](C)C(=O)N1CCC[C@H]1C(=O)N[C@@H](Cc1ccccc1)C(=O)CCl, also called MeOSuc-AAPF-CH2Cl; MSFCK) [MeOSuc-AlaAlaProPhe-CH2Cl] | -2.55 |  | ~0.05
AAAPL (HELM PEPTIDE1{[COC(=O)CCC(=O)[*:2]].A.A.A.P.L.[ClC[*:1]]}$$$$V2.0; SMILES COC(=O)CCC(=O)N[C@@H](C)C(=O)N[C@@H](C)C(=O)N[C@@H](C)C(=O)N1CCC[C@H]1C(=O)N[C@@H](CC(C)C)C(=O)CCl, also called MeOSuc-AAAPL-CH2Cl; A3PL) [MeOSuc-AlaAlaAlaProLeu-CH2Cl] | -30.9 | ~0.1 | ~0.05
APAL (HELM PEPTIDE1{[COC(=O)CCC(=O)[*:2]].A.P.A.L.[ClC[*:1]]}$$$$V2.0; SMILES COC(=O)CCC(=O)N[C@@H](C)C(=O)N1CCC[C@H]1C(=O)N[C@@H](C)C(=O)N[C@@H](CC(C)C)C(=O)CCl) [MeOSuc-AlaProAlaLeu-CH2Cl] |  |  | ~0.5
